Reference: paper PMC3041740, “Interplay between HIV Entry and Transportin-SR2 Dependency” (Retrovirology, 2011)

B1: MLV integrase, C-terminally His6-tagged (enzyme)
chain: IENSSPYTSEHFHYTVTDIKDLTKLGAIYDKTKKYWVYQGKPVMPDQFTFELLDFLHQLTHLSFSKMKALLERSHSPYYMLNRDRTLKNITETCKACAQVNASKSAVKQGTRVRGHRPGTHWEIDFTEIKPGLYGYKYLLVFIDTFSGWIEAFPTKKETAKVVTKKLLEEIFPRFGMPQVLGTDNGPAFVSKVSQTVADLLGIDWKLHCAYRPQSSGQVERMNRTIKETLTKLTLATGSRDWVLLLPLALYRARNTPGPHGLTPYEILYGAPPPLVNFPDPDMTRVTNSPSLQAHLQALYLVQHEVWRPLAAAYQEQLDRPVVPHPYRVGDTVWVRRHQTKNLEPRWKGPYTVLLTTPTALKVDGIAAWIHAAHVKAADPGGGPSSRLTWRVQRSQNPLKIRLTREAP
notes: integrase (IN) of murine leukemia virus (MLV); also called His6-tagged MLV IN; not shown: His6, C-terminal, kept
B2: HIV-1 integrase, C-terminally His6-tagged (enzyme)
chain: FLDGIDKAQEEHEKYHSNWRAMASDFNLPPVVAKEIVASCDKCQLKGEAMHGQVDCSPGIWQLDCTHLEGKVILVAVHVASGYIEAEVIPAETGQETAYFLLKLAGRWPVKTVHTDNGSNFTSTTVKAACWWAGIKQEFGIPYNPQSQGVIESMNKELKKIIGQVRDQAEHLKTAVQMAVFIHNFKRKGGIGGYSAGERIVDIIATDIQTKELQKQITKIQNFRVYYRDSRDPVWKGPAKLLWKGEGAVVIQDNSDIKVVPRRKAKIIRDYGKQMAGDDCVASRQDED

Target: T1, GST-TRN-SR2 (transportin-SR2) (UniProt Q9Y5L0-2 1-923)
T1 construct: transportin-SR2 (TRN-SR2, TNPO3, transportin 3); also called TNPO3; transportin 3; source: recombinant, expressed from pGEX-6P-2, purified using Glutathione Sepharose Resin
T1 sequence (looked up): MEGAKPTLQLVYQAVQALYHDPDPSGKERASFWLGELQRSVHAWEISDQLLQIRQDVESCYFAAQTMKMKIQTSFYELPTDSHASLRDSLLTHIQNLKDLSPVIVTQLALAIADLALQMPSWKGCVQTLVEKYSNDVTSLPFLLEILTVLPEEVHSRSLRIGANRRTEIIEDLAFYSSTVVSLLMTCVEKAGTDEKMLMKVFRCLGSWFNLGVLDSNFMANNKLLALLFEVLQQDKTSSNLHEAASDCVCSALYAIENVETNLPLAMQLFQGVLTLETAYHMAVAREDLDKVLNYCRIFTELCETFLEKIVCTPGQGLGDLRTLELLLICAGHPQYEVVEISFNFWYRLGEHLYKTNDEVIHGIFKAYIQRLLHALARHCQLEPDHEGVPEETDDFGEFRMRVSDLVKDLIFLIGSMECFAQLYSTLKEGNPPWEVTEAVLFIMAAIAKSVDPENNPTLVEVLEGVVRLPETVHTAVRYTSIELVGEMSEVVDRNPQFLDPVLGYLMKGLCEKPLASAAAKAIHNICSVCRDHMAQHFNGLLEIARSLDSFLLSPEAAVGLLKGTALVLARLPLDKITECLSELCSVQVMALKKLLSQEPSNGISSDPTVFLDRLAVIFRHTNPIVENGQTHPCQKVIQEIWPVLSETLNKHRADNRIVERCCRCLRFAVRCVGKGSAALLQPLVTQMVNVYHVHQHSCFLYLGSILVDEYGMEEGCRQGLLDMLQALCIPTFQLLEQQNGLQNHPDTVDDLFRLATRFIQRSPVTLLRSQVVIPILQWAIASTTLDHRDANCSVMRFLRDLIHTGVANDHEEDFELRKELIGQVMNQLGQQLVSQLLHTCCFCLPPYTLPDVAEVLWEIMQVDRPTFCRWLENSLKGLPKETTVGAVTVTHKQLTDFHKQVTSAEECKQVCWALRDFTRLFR
Test: AlphaScreen or HTRF; 10 nM GST-TRN-SR2 titrated with 1 to 150 nM His6-tagged protein; glutathione donor and nickel-chelate acceptor beads; 25 mM Tris/HCl pH 7.4, 150 mM NaCl, 1 mM MgCl2, 0.1% Tween-20, 0.1% BSA; 1 h at 4°C, then 1.5 h at room temperature with beads; apparent Kd
Conditions: both partners purified

Binder | Kd [nM]
B1 | 17.5 ± 0.5
B2 | 36.3 ± 2.3
